Measurements: patent US20180066058A1 (published 2018)

Experiments:
[1] = molecular target: T1, Human ICOS extracellular domain fused to human Fc (human, UniProt Q9Y6W8 21-140); test: SPR (ProteOn XPR36), human ICOS ECD-Fc captured, Fab analyte, pH 5.5, 37 C
T1 construct: Dimeric protein made in house from NCBI NP_036224.1; also called hICOS; hICOS Fc; not shown: human Fc region
T1 sequence: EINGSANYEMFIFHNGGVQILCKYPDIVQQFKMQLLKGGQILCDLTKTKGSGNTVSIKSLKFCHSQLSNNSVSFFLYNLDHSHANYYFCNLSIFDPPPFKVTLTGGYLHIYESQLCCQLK
Experimental: (§1) In addition, a comparison was performed of antibody:antigen binding affinity at different pH values. As before, the dimeric human ICOS protein, presented as the extracellular domain of ICOS fused to a human Fc region, was captured on the anti-human Fc capture surface created using the 3 antibody cocktail, immobilised on the GLC biosensor chip by primary amine coupling. SPR analysis of recombinantly expressed anti-ICOS Fabs was carried out on the ProteOn XPR36 Array system (Biorad). The Fab fragments were used as analyte to generate binding sensorgrams, which were double referenced with a buffer injection (i.e., 0 nM). The subsequent referenced sensorgrams were fitted to the 1:1 model inherent to the ProteOn analysis software. […] Data were fitted to the 1:1 model.

[2] = molecular target: T1, Human ICOS extracellular domain fused …; test: SPR (ProteOn XPR36), human ICOS ECD-Fc captured, Fab analyte, pH 7.4, 37 C
Experimental: as §1

[3] = molecular target: T1, Human ICOS extracellular domain fused …; test: SPR (ProteOn XPR36), human ICOS ECD-Fc captured, Fab analyte, pH 7.6, 37 C
Experimental: as §1

[4] = molecular target: T1, Human ICOS extracellular domain fused …; test: SPR (ProteOn XPR36), human ICOS ECD-Fc captured, Fab analyte, pH 7.6, 25 C
[5] = molecular target: T1, Human ICOS extracellular domain fused …; test: SPR (ProteOn XPR36), human ICOS ECD-Fc captured, Fab analyte, pH 5.5, 37 C (second run)
Experimental: as §1

[6] = molecular target: T1, Human ICOS extracellular domain fused …; test: SPR (ProteOn XPR36), Fc-tagged ICOS captured on anti-human IgG, Fab analyte, 25 C
Experimental: (§2) Fab affinities of the ICOS leads were generated by SPR using the ProteOn XPR3 6 (BioRad). An anti-human IgG capture surface was created on a GLC biosensor chip by primary amine coupling, immobilising three anti-human IgG antibodies (Jackson Labs 109-005-008, 109-006-008 and 309-006-008). […] Binding sensorgrams were double referenced using a buffer injection (i.e. 0 nM), and the data was fitted to the 1:1 model inherent to the ProteOn XPR36 analysis software. The assay was run at 25° C. and using HBS-EP as running buffer.

[7] = molecular target: T2, Mouse ICOS extracellular domain fused to human Fc (mouse, UniProt Q9WVS0 21-141); test: as above
T2 construct: Made in house from NCBI NP_059508.2; also called mICOS; mICOS Fc; not shown: human Fc region
T2 sequence: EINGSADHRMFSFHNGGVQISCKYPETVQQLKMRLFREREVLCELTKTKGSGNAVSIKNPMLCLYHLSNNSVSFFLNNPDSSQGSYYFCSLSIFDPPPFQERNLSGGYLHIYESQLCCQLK
Experimental: as §2

[8] = molecular target: T3, Cynomolgus ICOS on activated cynomolgus T cells (cynomolgus, UniProt Q9Y6W8 21-195 (human entry)); test: flow cytometry, AF647 pre-labelled hIgG1 on activated cynomolgus pan T cells, donor 1
T3 construct: also called NHP ICOS
T3 chain: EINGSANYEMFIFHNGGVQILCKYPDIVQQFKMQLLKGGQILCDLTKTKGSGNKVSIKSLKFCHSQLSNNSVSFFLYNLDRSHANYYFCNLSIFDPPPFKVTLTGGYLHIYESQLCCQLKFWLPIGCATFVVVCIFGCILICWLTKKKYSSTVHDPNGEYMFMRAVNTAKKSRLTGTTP
Experimental: PBMC from whole blood of 2 Mauritian cynomolgus macaques (Wickham Laboratories) were isolated by gradient centrifugation and cultured for 3 days with CD2/CD3/CD28 MACSiBeads (Miltenyi) to induce ICOS expression on their surface. […] Cells were also labelled with V450-CD3 to assess staining on T-cell subsets. Stained cells were run on Attune (Thermofisher) and staining intensity was presented as mean fluorescence intensity (MFI). EC50 was determined using GraphPad Prism.

[9] = molecular target: T4, Human ICOS on cells (human, UniProt Q9Y6W8 21-199); test: flow cytometry on activated human pan T cells (row Human), second donor column
T4 construct: the cell is named under assay; also called hICOS; human ICOS expressed on CHO-S cells
T4 sequence: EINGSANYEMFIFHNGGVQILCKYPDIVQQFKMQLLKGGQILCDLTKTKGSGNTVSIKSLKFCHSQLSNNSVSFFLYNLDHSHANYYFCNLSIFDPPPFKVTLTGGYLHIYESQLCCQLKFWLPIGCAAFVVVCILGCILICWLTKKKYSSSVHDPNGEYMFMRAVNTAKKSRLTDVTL

[10] = molecular target: T4, Human ICOS on cells; test: cell-based or functional assay
[11] = molecular target: T5, human ICOS-mFc (Chimerigen) (human, UniProt Q9Y6W8 21-140); test: HTRF neutralisation of Alexa 647 human B7-H2 binding to human ICOS-mFc; human IgG1; mean, n = 4
T5 construct: also called human ICOS receptor; human ICOS Receptor; not shown: mouse Fc of the bought construct
T5 sequence: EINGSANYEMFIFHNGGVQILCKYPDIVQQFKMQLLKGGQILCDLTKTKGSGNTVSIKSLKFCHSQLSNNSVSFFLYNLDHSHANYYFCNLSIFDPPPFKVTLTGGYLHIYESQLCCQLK
Experimental: (§3) 5 μl of ICOS receptor (human ICOS-mFc, 20 nM, 5 nM final or mouse ICOS-mFc 4 nM, 1 nM final (Chimerigen)) was added to required wells. Plate was incubated for 1 hr at room temperature (RT).
(§4) Finally, 5 μl of anti-mouse IgG donor mAb (Southern Biotech) labelled with europium cryptate (Cis Bio), 40 nM, 10 nM final was added to each well and the assay was left in the dark at RT to incubate for a further 2 hours. After incubation, assay was read on Envision plate reader (Perkin Elmer) using a standard HTRF protocol. […] Titration curves and IC50 values [M] were plotted using Graphpad (Prism). IC50 values were calculated by first transforming the data using equation X=Log(X). The transformed data was then fitted using nonlinear regression, using fitting algorithm, log (inhibitor) vs. response—variable slope (four parameters).

[12] = molecular target: T4, Human ICOS on cells; test: cell-based or functional assay; remark: listed apart in the source
[13] = molecular target: T6, mouse ICOS-mFc (Chimerigen) (mouse, UniProt Q9WVS0 21-141, limits assumed); test: HTRF neutralisation of Alexa 647 mouse B7-H2 binding to mouse ICOS-mFc; human IgG1; mean, n = 3
T6 construct: also called mouse ICOS receptor; mouse ICOS Receptor; not shown: mouse Fc of the bought construct
T6 sequence: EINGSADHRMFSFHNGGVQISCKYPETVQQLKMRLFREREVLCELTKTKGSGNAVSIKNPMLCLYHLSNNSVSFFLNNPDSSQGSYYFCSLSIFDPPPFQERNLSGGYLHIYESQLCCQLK
Experimental: as §3, §4

[14] = molecular target: T4, Human ICOS on cells; test: flow cytometry on activated primary human pan T cells; naked hIgG1 detected with AF647 goat anti-human Fc
Experimental: Pan T-cells (CD3 cells) were isolated and cultured for 3 days with CD3/CD28 dynabeads (Thermofisher) to induce ICOS expression on their surface. […] Stained cells were ran on the Attune and staining intensity was presented as Mean of fluorescence intensity (MFI). EC50 was determined using GraphPad Prism.

[15] = molecular target: T4, Human ICOS on cells; test: cell-based or functional assay; remark: listed apart in the source
[16] = molecular target: T4, Human ICOS on cells; test: flow cytometry on activated human pan T cells (row Human), first donor column
[17] = molecular target: T5, human ICOS-mFc (Chimerigen); test: HTRF neutralisation of Alexa 647 human B7-H2 binding to human ICOS-mFc; human IgG4.PE; mean, n = 4
Experimental: as §3, §4

[18] = molecular target: T6, mouse ICOS-mFc (Chimerigen); test: HTRF neutralisation of Alexa 647 mouse B7-H2 binding to mouse ICOS-mFc; human IgG4.PE; mean, n = 3
Experimental: as §3, §4

B1: STIM002-B Fab (Fab, V domains shown)
VH: QVQLVQSGGEVKKPGASVKVSCKASGYTFTSYGFSWVRQAPGQGLEWMGWISAYNGNTNYAQKLQGRVTMTTDTSTSTAYMELRSLRSDDTAVYYCARSTYFYGSGTLYGMDVWGQGTTVTVSS
VL: DIVMTQSPLSLPVTPGEPASISCRSSQSLLHSDGYNCLDWYLQKPGQSPQLLIYLGSTRASGFPDRFSGSGSGTDFTLKISRVEAEDVGVYYCMQALQTPCSFGQGTKLEIK
notes: Recombinantly expressed purified Fab
Question: B1 was tested. Which Kd [1] did it give?
Answer: 26.6 nM

Question: What about the Kd [2] of the same binder?
Answer: 41.8 nM

B2: STIM003 Fab (Fab, V domains shown)
VH: EVQLVESGGGVVRPGGSLRLSCVASGVTFDDYGMSWVRQAPGKGLEWVSGINWNGGDTDYSDSVKGRFTISRDNAKNSLYLQMNSLRAEDTALYYCARDFYGSGSYYHVPFDYWGQGILVTVSS
VL: EIVLTQSPGTLSLSPGERATLSCRASQSVSRSYLAWYQQKRGQAPRLLIYGASSRATGIPDRFSGDGSGTDFTLSISRLEPEDFAVYYCHQYDMSPFTFGPGTKVDIK
notes: as for B1
Question: Which results are given for B2?
Answer: Kd [1]: 1.02 nM; Kd [2]: 1.71 nM; Kd [3]: 1.98 nM; Kd [4]: 1.31 nM; Kd [5]: 1.15 nM; Kd [6]: 1.3 nM; Kd [7]: 0.4 nM

B3: STIM001 human IgG1 (antibody, V domains shown)
VH: QVQVVQSGAEVKKPGASVKVSCKASGYTFSTFGITWVRQAPGQGLEWMGWISAYNGDTNYAQNLQGRVIMTTDTSTSTAYMELRSLRSDDTAVYYCARSSGHYYYYGMDVWGQGTTVTVSS
VL: DIVMTQSPLSLPVTPGEPASISCRSSQSLLHSNEYNYLDWYLQKPGQSPQLLIFLGSNRASGVPDRFSGSGSGTDFTLKITRVEAEDVGIYYCMQSLQTPLTFGGGTKVEIKR
notes: Human IgG1 format; Conjugated with AF647 in the direct staining assays, coupled to beads or plates in the MJ cell assays; also called STIM001 (hIgG1); STIM001 hIgG1
Question: With B3 as the binder, how does the EC50 [8] read?
Answer: 222 nM

Question: What about the EC50 [9] of the same binder?
Answer: 121 nM

Question: What about the “EC50 (Molar unit), NK primary cell ADCC assay on MJ cells, 2 hour time point, Donor 1” value [10] of the same binder?
Answer: 0.121 nM

Question: And the “EC50 (Molar unit), NK primary cell ADCC assay on MJ cells, 2 hour time point, Donor 2” value [10]?
Answer: 0.529 nM

Question: And the “EC50 (Molar unit), NK primary cell ADCC assay on MJ cells, 2 hour time point, Donor 3” value [10]?
Answer: 2.92 nM

Question: What about the IC50 [11] of the same binder?
Answer: 2.2 nM

Question: What about the “EC50 (Molar unit), NK primary cell ADCC assay on ICOS-transfected CCRF-CEM cells, 4 hour time point, Donor 4” value [12] of the same binder?
Answer: 0.00392 nM

Question: What about the “EC50 (Molar unit), NK primary cell ADCC assay on ICOS-transfected CCRF-CEM cells, 4 hour time point, Donor 5” value [12] of the same binder?
Answer: 0.00395 nM

Question: And the “EC50 (Molar unit), NK primary cell ADCC assay on ICOS-transfected CCRF-CEM cells, 4 hour time point, Donor 6” value [12]?
Answer: 0.00375 nM

Question: What about the IC50 [13] of the same binder?
Answer: 6.5 nM

Question: And the EC50 [14]?
Answer: 17 nM

Question: What about the “EC50 (Molar unit), NK primary cells ADCC assay on MJ cells, 2 hour time point, Donor 1” value [15] of the same binder?
Answer: 0.121 nM

Question: What about the “EC50 (Molar unit), NK primary cells ADCC assay on MJ cells, 2 hour time point, Donor 2” value [15] of the same binder?
Answer: 0.529 nM

Question: What about the EC50 [16] of the same binder?
Answer: 221 nM

B4: STIM001 Fab (Fab, V domains shown)
VH: QVQVVQSGAEVKKPGASVKVSCKASGYTFSTFGITWVRQAPGQGLEWMGWISAYNGDTNYAQNLQGRVIMTTDTSTSTAYMELRSLRSDDTAVYYCARSSGHYYYYGMDVWGQGTTVTVSS
VL: DIVMTQSPLSLPVTPGEPASISCRSSQSLLHSNEYNYLDWYLQKPGQSPQLLIFLGSNRASGVPDRFSGSGSGTDFTLKITRVEAEDVGIYYCMQSLQTPLTFGGGTKVEIK
notes: as for B1
Question: With B4 as the binder, how does the Kd [1] read?
Answer: 73.1 nM

Question: What about the Kd [2] of the same binder?
Answer: 63.5 nM

Question: And the Kd [3]?
Answer: 42.6 nM

Question: And the Kd [4]?
Answer: 44 nM

Question: And the Kd [5]?
Answer: 80.3 nM

Question: And the Kd [6]?
Answer: 44 nM

Question: What about the Kd [7] of the same binder?
Answer: 407 nM

B5: STIM005 human IgG4.PE (antibody, V domains shown)
VH: QVQLVQSGAEVKKPGASVKVSCKASGYTFNSYGIIWVRQAPGQGLEWMGWISVHNGNTNCAQKLQGRVTMTTDTSTSTAYMELRSLRTDDTAVYYCARAGYDILTDFSDAFDIWGHGTMVTVSS
VL: DIQMTQSPSSLSASVGDRVTITCRASQNINNFLNWYQQKEGKGPKLLIYAASSLQRGIPSTFSGSGSGTDFTLTISSLQPEDFATYICQQSYGIPWVGQGTKVEIK
notes: Human IgG4.PE (null-effector) format
Question: How did the IC50 [17] turn out when B5 was run?
Answer: 1.6 nM

Question: And the IC50 [18]?
Answer: 0.3 nM

B6: STIM006 Fab (Fab, V domains shown)
VH: QVQLVESGGGLVKPGGSLRLSCAASGFTFSDYFMSWIRQAPGKGLEWISYISSSGSTIYYADSVRGRFTISRDNAKYSLYLQMNSLRSEDTAVYYCARDHYDGSGIYPLYYYYGLDVWGQGTTVTVSS
VL: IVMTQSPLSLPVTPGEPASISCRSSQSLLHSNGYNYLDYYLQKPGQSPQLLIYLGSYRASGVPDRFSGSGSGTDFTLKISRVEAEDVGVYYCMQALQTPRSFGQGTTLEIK
notes: Purified Fab
Question: Which Kd [6] does the source give for B6 here?
Answer: 13.8 nM

Question: What about the Kd [7] of the same binder?
Answer: 318 nM
